The target of the experiment is Nle-substituted 187-bp NCP (Xenopus laevis). The experiment can be described thus: cryo-EM structure.

“NSD2C-E1099K/T1150A (from UniProt O96028 661-1365) (domain or fragment)” had a stoichiometry N of 1 NSD2 per NCP.

What is called stoichiometry N is the number of molecules, sites or subunits per partner or assembly.

For the origin of these results see PMC7889650.
